According to ChEMBL document CHEMBL1153321, “Approaches to the simultaneous inactivation of metallo- and serine-beta-lactamases” (Bioorg Med Chem Lett, 2009):

Assays:
Details in all cases: Enterobacter cloacae
[1] = substrate: CC(=O)OCC1=C(C(=O)O)N2C(=O)[C@@H](NC=O)[C@H]2SC1
[2] = substrate: CC(=O)OCC1=C(C(=O)O)N2C(=O)[C@@H](N(O)C=O)[C@H]2SC1
[3] = substrate: CC1=C(C(=O)O)N2C(=O)/C(=N/O)[C@H]2S(=O)(=O)C1
[4] = substrate: CC(=O)OCC1=C(C(=O)O)N2C(=O)/C(=N/O)[C@H]2SC1
[5] = substrate: CC(=O)OCC1=C(C(=O)O)N2C(=O)[C@@H](NC(=O)Cc3cccs3)[C@H]2SC1
[6] = substrate: CC(=O)OCC1=C(C(=O)O)N2C(=O)[C@@H](N)[C@H]2SC1
[7] = substrate: CC(=O)OCC1=C(C(=O)O)N2C(=O)[C@@H](N(O)C(=O)Cc3ccccc3)[C@H]2SC1
[8] = substrate: CC(=O)OCC1=C(C(=O)O)N2C(=O)[C@@H](NO)[C@H]2SC1
[9] = substrate: CC(=O)OCC1=C(C(=O)O)N2C(=O)/C(=N/O)[C@H]2S(=O)(=O)C1

B1: Beta-lactamase (Enterobacter cloacae), P05364 (protein)
chain: MMRKSLCCALLLGISCSALATPVSEKQLAEVVANTITPLMKAQSVPGMAVAVIYQGKPHYYTFGKADIAANKPVTPQTLFELGSISKTFTGVLGGDAIARGEISLDDAVTRYWPQLTGKQWQGIRMLDLATYTAGGLPLQVPDEVTDNASLLRFYQNWQPQWKPGTTRLYANASIGLFGALAVKPSGMPYEQAMTTRVLKPLKLDHTWINVPKAEEAHYAWGYRDGKAVRVSPGMLDAQAYGVKTNVQDMANWVMANMAPENVADASLKQGIALAQSRYWRIGSMYQGLGWEMLNWPVEANTVVEGSDSKVALAPLPVAEVNPPAPPVKASWVHKTGSTGGFGSYVAFIPEKQIGIVMLANTSYPNPARVEAAYHILEALQ
B1 was tested, and the Km [1] was 315 µM, the kcat [1] was 1180 s⁻¹ and the Km [2] was 240 µM. It also gave a kcat [2] of 0.32 s⁻¹, a Km [3] of 4.5 µM and a kcat [3] of 0.54 s⁻¹. For the same protein, the Km [4] was 366 µM, the kcat [4] was 2.56 s⁻¹ and the Km [5] was 15.4 µM. The kcat [5] was 690 s⁻¹, the Km [6] was 290 µM and the kcat [6] was 0.46 s⁻¹. It also gave a Km [7] of 5 µM, a kcat [7] of 0.49 s⁻¹ and a Km [8] of 1450 µM. The kcat [8] was 1.6 s⁻¹ and the Km [9] was greater than 200 µM.
